According to patent publication US20240307538A1:

Columns and labels:
[1] = biological target: Fc gamma macrophage receptors; assay: flow cytometry on human macrophages, hybrid 5 µg/ml, 20 h at 37°C, anti-Fc-FITC
[2] = biological target: Fc gamma macrophage receptors; assay: flow cytometry on human macrophages, hybrid 5 µg/ml, 2 h at 37°C, anti-Fc-FITC
[3] = biological target: Fc gamma macrophage receptors; assay: cell-based or functional assay
[4] = biological target: Fc gamma receptors of NK cells; assay: cell-based or functional assay
[5] = biological target: Fc gamma receptors of NK cells; assay: cytofluorimetry on NK cells, 24 h at 37°C
[6] = biological target: Fc gamma receptors of NK cells; assay: cytofluorimetry on NK cells, 48 h at 37°C
[7] = biological target: Fc gamma receptors of NK cells; assay: cytofluorimetry on NK cells, 30 min at 37°C
[8] = biological target: Fc gamma receptors of NK cells; assay: cytofluorimetry on NK cells, labelled Fc 10 µg/ml, 30 min at 37°C, no IgG
[9] = biological target: Fc gamma receptors of NK cells; assay: competition, cytofluorimetry on NK cells: labelled FcSDHFSTIE-N3-DBCO-A647 10 µg/ml with human IgG 100 µg/ml; ratio to NEG
[10] = biological target: Fc gamma receptors of NK cells; assay: competition, cytofluorimetry on NK cells: labelled FcSDHFSTIE-N3-DBCO-A647 10 µg/ml with human IgG 10 µg/ml; ratio to NEG
[11] = biological target: Fc gamma receptors of NK cells; assay: competition, cytofluorimetry on NK cells: labelled FcSDHFSTIE-N3-DBCO-A647 10 µg/ml with human IgG 10000 µg/ml
[12] = biological target: Fc gamma receptors of NK cells; assay: competition, cytofluorimetry on NK cells: labelled FcSDHFSTIE-N3-DBCO-A647 10 µg/ml with human IgG 10 µg/ml
[13] = biological target: Fc gamma receptors of NK cells; assay: competition, cytofluorimetry on NK cells: labelled FcSDHFSTIE-N3-DBCO-A647 10 µg/ml with human IgG 100 µg/ml
[14] = biological target: Fc gamma receptors of NK cells; assay: competition, cytofluorimetry on NK cells: labelled FcSDHFSTIE-N3-DBCO-A647 10 µg/ml with human IgG 1000 µg/ml
[15] = biological target: Fc gamma receptors of NK cells; assay: competition, cytofluorimetry on NK cells: labelled FcSDHFSTIE-N3-DBCO-A647 10 µg/ml with human IgG 10000 µg/ml; ratio to NEG
[16] = biological target: Fc gamma receptors of NK cells; assay: competition, cytofluorimetry on NK cells: labelled FcSDHFSTIE-N3-DBCO-A647 10 µg/ml with human IgG 1 µg/ml; ratio to NEG
[17] = biological target: Fc gamma receptors of NK cells; assay: competition, cytofluorimetry on NK cells: labelled FcSDHFSTIE-N3-DBCO-A647 10 µg/ml with human IgG 1 µg/ml
[18] = biological target: Fc gamma receptors of NK cells; assay: competition, cytofluorimetry on NK cells: labelled FcSDHFSTIE-N3-DBCO-A647 10 µg/ml with human IgG 1000 µg/ml; ratio to NEG

A Macrophages (fluorescence by cytofluorimetry) [1] of 404 and a Macrophages (fluorescence by cytofluorimetry) [2] of 502 were found for “Fc-LALA-β60-74cit (from UniProt P01857 104-330) (Fc fusion)” in this work.
An inhibition of phagocytosis by competing human IgG at 10 mg/ml [3] of 50% was found for “Fc-WT-PEG-α621-635cit (from UniProt P01857 104-330) (Fc fusion)” in this work.
A % expression of CD107a (NK cell degranulation) [4] of 1.8% was found for “Fc-WT-PEG-β60-74cit (from UniProt P01857 104-330) (Fc fusion)” in this work.
A Macrophages (fluorescence by cytofluorimetry) [1] of 1000 and a Macrophages (fluorescence by cytofluorimetry) [2] of 808 were found for “Fc-WT-β60-74cit (from UniProt P01857 104-330) (Fc fusion)” in this work.
A % expression of CD107a (NK cell degranulation) [4] of 2.2% was found for “FcLALAPG-β60-74 (from UniProt P01857 104-330) (Fc fusion)” in this work.
An MFI [5] of 2350, an MFI [6] of 1710 and an MFI [7] of 2970 were found for “FcSDHFSTIE-N3-DBCO-A488 (from UniProt P01857 104-330)” in this work.
An MFI [8] of 38500 was found for “FcSDHFSTIE-N3-DBCO-A647 (from UniProt P01857 104-330)” in this work.
An MFI [5] of 4090, an MFI [6] of 4340 and an MFI [7] of 4590 were found for “FcSDHFSTIE-N3-DBCO-PEG3-β60-74cit-lysineA488 (from UniProt P01857 104-330) (Fc fusion)” in this work.
An RATIO of FcSDHFSTIE-N3-DBCO-A647 with IgG as competitor [9] of 171, an RATIO of FcSDHFSTIE-N3-DBCO-A647 with IgG as competitor [10] of 183 and an MFI of FcSDHFSTIE-N3-DBCO-A647 with IgG as competitor [11] of 20500 were found for human IgG (antibody) in this work. For the same substance, the MFI of FcSDHFSTIE-N3-DBCO-A647 with IgG as competitor [12] was 38800, the MFI of FcSDHFSTIE-N3-DBCO-A647 with IgG as competitor [13] was 36300 and the MFI of FcSDHFSTIE-N3-DBCO-A647 with IgG as competitor [14] was 29500. It also gave an RATIO of FcSDHFSTIE-N3-DBCO-A647 with IgG as competitor [15] of 96.6, an RATIO of FcSDHFSTIE-N3-DBCO-A647 with IgG as competitor [16] of 179 and an MFI of FcSDHFSTIE-N3-DBCO-A647 with IgG as competitor [17] of 37900. It also gave an RATIO of FcSDHFSTIE-N3-DBCO-A647 with IgG as competitor [18] of 139.
